# Experimental data from US7964598B2 (The J. David Gladstone Institutes, priority 1995, dated 2011).
# B1: lactoferrin: blocks binding of lipoproteins to both HSPG and LRP (protein, UniProt P02788 20-710, looked up)
# Lactotransferrin: GRRRSVQWCAVSQPEATKCFQWQRNMRKVRGPPVSCIKRDSPIQCIQAIAENRADAVTLDGGFIYEAGLAPYKLRPVAAEVYGTERQPRTHYYAVAVVKKGGSFQLNELQGLKSCHTGLRRTAGWNVPIGTLRPFLNWTGPPEPIEAAVARFFSASCVPGADKGQFPNLCRLCAGTGENKCAFSSQEPYFSYSGAFKCLRDGAGDVAFIRESTVFEDLSDEAERDEYELLCPDNTRKPVDKFKDCHLARVPSHAVVARSVNGKEDAIWNLLRQAQEKFGKDKSPKFQLFGSPSGQKDLLFKDSAIGFSRVPPRIDSGLYLGSGYFTAIQNLRKSEEEVAARRARVVWCAVGEQELRKCNQWSGLSEGSVTCSSASTTEDCIALVLKGEADAMSLDGGYVYTAGKCGLVPVLAENYKSQQSSDPDPNCVDRPVEGYLAVAVVRRSDTSLTWNSVKGKKSCHTAVDRTAGWNIPMGLLFNQTGSCKFDEYFSQSCAPGSDPRSNLCALCIGDEQGENKCVPNSNERYYGYTGAFRCLAENAGDVAFVKDVTVLQNTDGNNNEAWAKDLKLADFALLCLDGKRKPVTEARSCHLAMAPNHAVVSRMDKVERLKQVLLHQQAKFGRNGSDCPDKFCLFQSETKNLLFNDNTECLARLHGKTTYEKYLGPQYVAGITNLKKCSTSPLLEACEFLRK
# Test system: apoE4-expressing Neuro-2a cells
# Assay: Neurite outgrowth, apoE4-expressing Neuro-2a cells
# Type: cell-based, mouse
# Details: in the presence of β-VLDL
# Procedure: Cells were grown in DME/F12 containing 10% FBS and G418 (400 μg/ml). On the day the experiment was initiated, the cells were subcultured into 35 mm plates in DME/F12 with 10% FBS. The cells were allowed to adhere to the plastic plates for 2 hr at 37° C., and then the culture medium was changed to N2 medium with or without increasing concentrations of lipoproteins. After 48 hr at 37° C., the media were replaced with the same medium (with or without lipoproteins), and the incubation was continued for an additional 48 hr. […] Neurons were imaged in fluorescence mode with a confocal laser scanning system (MRC-600, BioRad, Hercules, Calif.), and the images were digitized with an Image-1/AT image analysis system (Universal Images, West Chester, Pa.). The neuronal images were coded before characterization, and the following variables were measured: 1) number of neurites (defined as cell surface projections at least one-half the cell diameter) on each neuron; 2) neurite branching (the number of branch points on each neurite); and 3) neurite extension (the length of the longest neurite, measured from the cell body). Typically, in each experiment the neurites of 20 to 40 neurons per plate were measured and the results preserved as the mean±S.E.M. […]
molecule,measurement,value
B1,inhibition of neurite extension seen in the apoE4-expressing cells,blocked the effects of apoE3 and apoE4 on neurite outgrowth
